{"source": "patent US20190117753A1", "about": "(VIRGINIA COMMONWEALTH UNIVERSITY, published 2019)", "binders": {"B1": {"name": "GST-OmpA (N-terminal glutathione-S-transferase-tagged A. phagocytophilum OmpA, excluding the signal sequence) (other)", "chain": "CGTLLPDSNVGVGRHDLGSHRSVAFAKKVEKVYFDIGKYDLKGPGKKVILELVEQLRQDDSMYLVVIGHADATGTEEYSLALGEKRANAVKQFIIGCDKSLAPRVTTQSRGKAEPEVLVYSTDAQEVEKANAQNRRAVIVVEFAHIPRSGVADMHAPVASSITSENSNASAEGEDMEASEFSSAIAN", "notes": "also called GST-ApOmpA; GST-tagged Aph OmpA; not shown: glutathione-S-transferase (GST) tag, N-terminal, from the pDest-15 vector"}}, "target": "T1, sLe^x-capped PSGL-1 on transfected Chinese hamster ovary cells (PSGL-1 CHO cells) (UniProt Q14242 42-412, sLe^x-capped (sialylated and fucosylated) glycans (so in the source))", "T1 construct": "whole, on cells; also called sialylated PSGL-1; sLe^x-modified PSGL-1", "T1 sequence": "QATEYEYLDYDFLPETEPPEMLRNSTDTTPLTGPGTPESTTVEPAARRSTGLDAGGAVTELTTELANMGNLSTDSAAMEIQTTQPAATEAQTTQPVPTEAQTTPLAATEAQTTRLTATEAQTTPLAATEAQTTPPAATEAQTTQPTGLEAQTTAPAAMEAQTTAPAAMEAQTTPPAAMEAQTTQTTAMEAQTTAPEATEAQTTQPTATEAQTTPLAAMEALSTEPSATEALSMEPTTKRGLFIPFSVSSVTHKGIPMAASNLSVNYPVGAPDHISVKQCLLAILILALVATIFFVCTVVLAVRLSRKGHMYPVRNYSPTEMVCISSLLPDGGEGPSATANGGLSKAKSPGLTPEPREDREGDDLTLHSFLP", "assay": "PSGL-1 CHO cells preincubated with GST-OmpA; competitor: Aph organisms (data not shown)", "data": [{"binder": "B1", "values": [{"measurement": "reduction of Aph binding to sLe^x-modified PSGL-1 relative to GST alone", "result": "~60", "unit": "%"}]}]}
